Data: paper PMC8251345, “Entropic pressure controls the oligomerization of the Vibrio cholerae ParD2 antitoxin” (Acta Crystallographica. Section D, Structural Biology, 2021)
Where “and” joins values, the source holds several entries; their conditions need not be identical. Equal entries are not always repeated. Where two headings read alike, the source gives them in different places.

Columns and labels:
[1] = target: N-terminal domain of Vibrio cholerae ParD2 as crystallised (V. cholerae); test: crystal structure
[2] = target: N-terminal domain of Vibrio cholerae ParD2 as crystallised (V. cholerae); test: crystal structure; remark: listed apart in the source
[3] = target: the molecule itself; test: SAXS (SEC-SAXS)
[4] = target: the molecule itself; test: […]; pH 8.0 and pH 5.6, […]
[5] = target: the molecule itself; test: native MS

| Molecule | stoichiometry N [1] | stoichiometry N [2] | stoichiometry N [3] | stoichiometry N [4] | stoichiometry N [5] |
| --- | --- | --- | --- | --- | --- |
| N-terminal domain of Vibrio cholerae ParD2 as crystallised (domain or fragment) | 2 | 16 | – | – | – |
| Vibrio cholerae ParD2 antitoxin (natural protein, also called VcParD2) MAKNTSITLGEHFDGFITSQIQSGRYGSASEVIRSALRLLENQETKLQSLRQLLIEGEQSGDADYDLDSFINELDSENIR | – | – | 12 | 10 and 8 | 2 and 4 |
